The source of these data is paper PMC5805371.

This assay concerns the target MYC-tagged TNPO1 (UniProt Q92973). Nature of the assay: co-immunoprecipitation with luciferase readout (anti-MYC IP). Particulars: HEK293 cells expressing MYC-TNPO1 and PER1PY/Cys_mut-LUCIFERASE; control IgG IP (filled bar) est. 0.75 ± 0.19; n.s.; means ± SD of five; read off a plot.
Sequence of UniProt Q92973 (Q92973 whole entry): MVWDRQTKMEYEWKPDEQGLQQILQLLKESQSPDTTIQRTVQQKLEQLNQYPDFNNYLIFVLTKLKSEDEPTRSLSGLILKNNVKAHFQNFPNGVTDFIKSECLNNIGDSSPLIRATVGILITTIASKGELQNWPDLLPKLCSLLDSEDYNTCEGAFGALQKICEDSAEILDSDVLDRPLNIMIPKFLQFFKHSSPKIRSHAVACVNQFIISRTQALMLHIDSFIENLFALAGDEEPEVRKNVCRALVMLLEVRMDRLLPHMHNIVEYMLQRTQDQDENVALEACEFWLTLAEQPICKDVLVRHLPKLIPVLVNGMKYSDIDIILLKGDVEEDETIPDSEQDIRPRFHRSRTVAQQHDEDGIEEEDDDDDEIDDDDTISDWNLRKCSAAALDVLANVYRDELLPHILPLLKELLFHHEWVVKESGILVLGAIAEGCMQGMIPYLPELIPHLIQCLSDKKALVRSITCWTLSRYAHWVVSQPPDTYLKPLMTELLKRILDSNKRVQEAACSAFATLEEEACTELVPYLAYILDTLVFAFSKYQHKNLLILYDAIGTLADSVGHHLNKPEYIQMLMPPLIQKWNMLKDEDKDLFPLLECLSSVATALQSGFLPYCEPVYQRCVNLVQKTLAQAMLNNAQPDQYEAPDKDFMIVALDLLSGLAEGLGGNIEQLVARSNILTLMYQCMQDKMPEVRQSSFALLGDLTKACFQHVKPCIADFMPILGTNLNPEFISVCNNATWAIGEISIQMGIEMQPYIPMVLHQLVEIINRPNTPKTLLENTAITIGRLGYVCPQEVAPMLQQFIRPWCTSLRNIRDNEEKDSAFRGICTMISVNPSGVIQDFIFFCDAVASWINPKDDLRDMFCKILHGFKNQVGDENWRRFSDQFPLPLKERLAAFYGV

Substance “PER1 fused to full-length firefly luciferase (HEK293) (from UniProt O15534) P883A; Y884A; P935A; Y936A; seven C-terminal Cys to Ala (positions not printed)” registered a response of 0.75.
